± gives the uncertainty stated by the source.
Assay: self-splicing fitness, log relative to wild type (ln ratio); higher = more splicing; Tetrahymena group I intron in knt gene, E. coli kanamycin selection, DiMSum; sequences stand for … in CUCUCU…GGAGGGAAAAGUUAUCAGGCAUGCACCUGGUAGCUAGUCUUUAAACCAAUAGAUUGCAUCGGUUUAAAAGGCAAGACCGUCAAAUUGCGGGAAAGGGGUCAACAGCCGUUCAGUACCAAGUCUCAGGGGAAACUUUGAGAUGGCCUUGCAAAGGGUAUGGUAAUAAGCUGACGGACAUGGUCCUAACCACGCAGCCAAGUCCUAAGUCAACAGAUCUUCUGUUGAUAUGGAUGCAGUUCACAGACUAAAUGUCGGUCGGGGAAGAUGUAUUCUUCUCAUAAGAUAUAGUCGGACCUCUCCUUAAUGGGAGCUAGCGGAUGAAGUGAUGCAACACUGGAGCCGCUGGGAACUAAUUUGUAUGCGAAAGUAUAUUGAUUAGUUUUGGAGUACUCGUGGUCG
Procedure, shortened: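 Colonies from six replicate transformations of E. coli BL21(DE3) were pooled and amplicon-sequenced on an Illumina HiSeq 2500. The library placed an intron with all eight P1ex-region nucleotides randomised inside the knt kanamycin-resistance gene on pET-22b(+), and cells grew overnight at 37°C or 30°C on LB agar with or without 25 μg/mL kanamycin (plus 100 μg/mL carbenicillin, 50 μM IPTG, 0.2% rhamnose). Fitness is the DiMSum error-weighted combination of wild-type-normalised replicate fold changes, kanamycin versus none.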

Row | Sequence | self-splicing fitness (ln) (30 °C) | self-splicing fitness (ln) (37 °C)
1 | GCUCAGCAAUAUUACGUAGG | 0.139 ± 0.052 | 0.32 ± 0.076
2 | AUUAAGCAAUAUUACGGUCA | -1.4 ± 0.14 | -0.528 ± 0.14
3 | UAGCAGCAAUAUUACGUUGA | -2.46 ± 0.13 | -2.07 ± 0.12
4 | UAUUAGCAAUAUUACGCGAU | – | -2.15 ± 0.38
5 | CUAUAGCAAUAUUACGGUCA | -1.82 ± 0.19 | -1.7 ± 0.24
6 | UUGAAGCAAUAUUACGUAUG | -0.752 ± 0.079 | -0.391 ± 0.11
7 | CAUGAGCAAUAUUACGACAU | -3.739 ± 0.028 | -2.9 ± 0.043
8 | CGGGAGCAAUAUUACGGUAA | -3.01 ± 0.34 | -1.13 ± 0.21
9 | GUGCAGCAAUAUUACGCGGU | -2.93 ± 0.19 | -2.94 ± 0.32
10 | CCAUAGCAAUAUUACGGUAA | -3.53 ± 0.33 | -3.26 ± 0.35
11 | GUAAAGCAAUAUUACGGUAA | -1.09 ± 0.086 | -0.336 ± 0.11
12 | GUCUAGCAAUAUUACGAGUC | -1.93 ± 0.11 | -1.88 ± 0.093
13 | CGUGAGCAAUAUUACGGAGG | -2.69 ± 0.17 | -0.9 ± 0.14
14 | ACUCAGCAAUAUUACGAUUU | 0.00163 ± 0.057 | 0.417 ± 0.073
15 | GCCCAGCAAUAUUACGGCAU | -3.47 ± 0.13 | -1.01 ± 0.1
16 | GUGUAGCAAUAUUACGUCUA | -1.13 ± 0.24 | 0.254 ± 0.23
17 | UAGGAGCAAUAUUACGCCGG | -2.07 ± 0.22 | -1.57 ± 0.3
18 | AGAAAGCAAUAUUACGUUUG | -2.48 ± 0.14 | -2.24 ± 0.21
19 | AGGCAGCAAUAUUACGCAUU | -2.24 ± 0.13 | -0.577 ± 0.1
20 | UAGGAGCAAUAUUACGCUAG | -3.03 ± 0.19 | -0.83 ± 0.19
21 | AUCGAGCAAUAUUACGACCA | -2.06 ± 0.22 | -0.741 ± 0.28
22 | ACGUAGCAAUAUUACGGUGG | -5.08 ± 0.28 | -2.92 ± 0.16
23 | GAUGAGCAAUAUUACGAUUC | -2.42 ± 0.46 | –
24 | GAAGAGCAAUAUUACGAGGG | -3.54 ± 0.2 | -3.02 ± 0.28
25 | CCCAAGCAAUAUUACGCUUU | -3.91 ± 0.2 | -1.85 ± 0.17
26 | AGCAAGCAAUAUUACGAUUG | -4.19 ± 0.17 | -1.91 ± 0.11

Row | Sequence | self-splicing fitness (ln) (30 °C) | self-splicing fitness (ln) (37 °C)
27 | AUUCAGCAAUAUUACGUACG | -1.91 ± 0.087 | -0.205 ± 0.1
28 | CCAGAGCAAUAUUACGUAUC | -2.62 ± 0.17 | -1.73 ± 0.25
29 | GAAGAGCAAUAUUACGUCAC | – | -2.13 ± 0.23
30 | UGCCAGCAAUAUUACGGCCG | -0.659 ± 0.073 | -0.389 ± 0.092
31 | AGCGAGCAAUAUUACGCUUC | -3.16 ± 0.24 | -2.02 ± 0.28
32 | CCAAAGCAAUAUUACGUAGA | -3.5 ± 0.17 | -2.55 ± 0.18
33 | AAGAAGCAAUAUUACGAAUC | -2.91 ± 0.15 | -2.64 ± 0.26
34 | ACGGAGCAAUAUUACGUUGA | -2.94 ± 0.2 | -2.29 ± 0.21
35 | AUCGAGCAAUAUUACGAUGG | – | -2.17 ± 0.38
36 | GUUUAGCAAUAUUACGUCAC | -3.24 ± 0.24 | -0.353 ± 0.17
37 | ACACAGCAAUAUUACGCGAG | -1.74 ± 0.053 | -0.504 ± 0.061
38 | CACAAGCAAUAUUACGGAGG | -2.14 ± 0.089 | -0.826 ± 0.1
39 | CACUAGCAAUAUUACGUUAC | -3.4 ± 0.14 | -2.77 ± 0.16
40 | UCCAAGCAAUAUUACGGGUU | -3.89 ± 0.14 | -1.75 ± 0.097
41 | AUCCAGCAAUAUUACGGCAA | -0.324 ± 0.1 | -0.263 ± 0.12
42 | GAUUAGCAAUAUUACGACCG | -1.44 ± 0.14 | 0.0909 ± 0.18
43 | CUCUAGCAAUAUUACGACUU | – | -3.23 ± 0.31
44 | ACCGAGCAAUAUUACGUGAA | -4.46 ± 0.17 | -2.3 ± 0.14
45 | ACUCAGCAAUAUUACGCAUU | -0.878 ± 0.049 | -0.294 ± 0.06
46 | CUGCAGCAAUAUUACGAAAG | -1.42 ± 0.14 | -1.47 ± 0.15
47 | AAAUAGCAAUAUUACGGCUU | 0.203 ± 0.1 | 0.139 ± 0.13
48 | GACCAGCAAUAUUACGAACU | 0.271 ± 0.062 | -0.0101 ± 0.082
49 | GCUUAGCAAUAUUACGCUGC | -3.09 ± 0.35 | -2.38 ± 0.42
50 | GAAAAGCAAUAUUACGAUCC | -1 ± 0.11 | -0.724 ± 0.15
51 | CGCCAGCAAUAUUACGACGC | -3.21 ± 0.2 | -2.97 ± 0.35
52 | UAAGAGCAAUAUUACGUGGC | -4.44 ± 0.27 | -2.2 ± 0.2

Row | Sequence | self-splicing fitness (ln) (30 °C) | self-splicing fitness (ln) (37 °C)
53 | CCUGAGCAAUAUUACGUUAG | -3.86 ± 0.17 | -2.29 ± 0.12
54 | GGGCAGCAAUAUUACGUCGU | -0.45 ± 0.11 | -0.185 ± 0.1
55 | UCGAAGCAAUAUUACGGAUA | -1.08 ± 0.15 | -1.15 ± 0.19
56 | UCUCAGCAAUAUUACGCUCA | – | -1.48 ± 0.43
57 | AACCAGCAAUAUUACGCGAC | -2.27 ± 0.14 | -1.2 ± 0.12
58 | UGGCAGCAAUAUUACGGAAC | -2.89 ± 0.36 | -1.72 ± 0.21
59 | UAAAAGCAAUAUUACGAACC | -3.12 ± 0.36 | -1.25 ± 0.45
60 | AGCCAGCAAUAUUACGAUGU | -2.62 ± 0.16 | -1.32 ± 0.13
61 | GUGGAGCAAUAUUACGUCAG | – | -2.43 ± 0.46
62 | CAAAAGCAAUAUUACGAGUG | -0.995 ± 0.058 | -0.101 ± 0.075
63 | GGUUAGCAAUAUUACGCAUC | -0.527 ± 0.33 | -0.989 ± 0.38
64 | CAUGAGCAAUAUUACGUCUG | -1.41 ± 0.073 | -1.06 ± 0.073
65 | ACUCAGCAAUAUUACGUGGA | -1.96 ± 0.078 | -1.54 ± 0.082
66 | GAGAAGCAAUAUUACGCUGA | -1.49 ± 0.17 | -1.29 ± 0.15
67 | GUCCAGCAAUAUUACGCCCA | 0.224 ± 0.26 | -0.451 ± 0.21
68 | CGUAAGCAAUAUUACGUGAU | -3.93 ± 0.31 | -2.57 ± 0.24
69 | UGGCAGCAAUAUUACGUACG | -0.616 ± 0.077 | -0.265 ± 0.12
70 | CCGAAGCAAUAUUACGGGAU | -3.69 ± 0.26 | -2.47 ± 0.22
71 | AAGAAGCAAUAUUACGAGAC | -4.15 ± 0.29 | -2.85 ± 0.25
72 | AUGAAGCAAUAUUACGAGAC | -2.73 ± 0.43 | -1.28 ± 0.47
73 | CUUCAGCAAUAUUACGAUCA | – | -1.38 ± 0.32
74 | UGUUAGCAAUAUUACGCUGC | -1.63 ± 0.18 | -2.44 ± 0.32
75 | CAUAAGCAAUAUUACGUCGU | -4.23 ± 0.34 | -1.64 ± 0.12
76 | AACAAGCAAUAUUACGCAGA | -2.2 ± 0.11 | -0.924 ± 0.095
77 | UACCAGCAAUAUUACGCCGU | -1.4 ± 0.14 | -1.6 ± 0.23
